What was measured:
[1] = molecular target: β chain of human IL-2 receptor (human, UniProt P14784); test: competition with 125I-labelled TU27 or TU25 antibody on YT cells
Protocol: (§1) In an RPMI-1640 culture medium containing 0.5% BSA and 0.02% NaN_2 there were suspended 5×10^5 YT cells to which were added polypeptide Fv(TU27), TU27 antibody, polypeptide Fv(TU25) and TU25 antibody diluted with the same type culture medium to an appropriate concentration and then reacted for one hour at 4° C. Then a TU27 or TU25 antibody labelled with ^125I according to the chloramine T method was added to the mixture which was subjected to a 2 hour reaction at 4° C., after which the radioactivity bound to cell surfaces was measured.

β chain of IL-2 receptor = test: Inhibition of binding of 125I-labelled IL-2 to MOLT4 cells transfected with cDNA for the β chain of IL-2 receptor; design: species or system human; details: 4° C.
Protocol: To the resulting suspension were added polypeptide Fv(TU27), TU27 monoclonal antibody (originating in hybridoma FERM BP-2510), polypeptide Fv(TU25) and TU25 monoclonal antibody (originating in hybridoma FERM BP-3529) diluted with the same type culture medium to an appropriate concentration, and this was reacted for one hour at 4° C.

[2] = system: β chain of IL-2 receptor on the surface of each YT cell; test: Inhibition of binding of 125I-labelled TU27 or TU25 antibody to YT cells; design: species or system human; details: 4° C.
Protocol: as §1, with “[…]” for “NaN_2”, “^125 I” for “^125I”

B1: polypeptide Fv(TU25) (scFv)
scFv: MDIQLTQSPAILSVSPGERVSFSCRASQTIGTSIHWYQQRTNGSPRLLIKYASESISGIPSRFSGSGSGTDFTLSINNVESEDIADYYCQQTNTWPTTFGSGTKLELKVDKSSGSGSESKSTQVKLEQSGGGLVKPGGSLKLSCAASGFAFSSYDMSWVRQTPEKRLNWVATFSSDGSDTDYPDSVKGRFTISRDNARNTLYLQMSSLRSEDTALYYCARGYPYAMDYWGQGTTVTVSS
For B1, the binding result [1] was “binds”, the “activity to inhibit the binding of IL-2 to a β chain of an IL-2 receptor” value (β chain of IL-2 receptor) was “have activity to inhibit the binding of IL-2” and the “activity to inhibit the binding between TU27 or TU25 monoclonal antibody and the β chain of IL-2 receptor” value [2] was “have activity to inhibit the binding”.

B2: Fv(TU27): single chain polypeptide of 240 amino acids consisting only of V regions of TU27 anti-IL-2 receptor β chain antibody (protein)
scFv: MDILLTQSPAILSVSPGERVSFSCRASQSIGTSIHWYQQRTNGSPRLLIKYASESLSGIPSRFSGSGSGTDFTLSITSVDSEDIADYYCQQTNSWPTTFGGGTKLELKVDKSSGSGSESKSTQVKLEESGPGLVKPSQSLSLTCTVTGYPITSDYAWDWIRQFPGNKLEWMGYVSYSGSTDYNPSLKSRISISRDTSKNQFFLQLNSVTTEDTATYYCARGGFPYAMDYWGQGTTVTVSS
B2 was tested, and the “activity to inhibit the binding of IL-2 to a β chain of an IL-2 receptor” value (β chain of IL-2 receptor) was “have activity to inhibit the binding of IL-2” and the “activity to inhibit the binding between TU27 or TU25 monoclonal antibody and the β chain of IL-2 receptor” value [2] was “have activity to inhibit the binding”.

Reference: patent US5876717A (Ajinomoto Co., Inc., dated 1999)
